Test results from publication PMC10517005, “A conserved membrane protein negatively regulates Mce1 complexes in mycobacteria” (Nature Communications, 2023).

Substrate: Nc1ncnc2c1ncn2[C@@H]1O[C@H](COP(=O)(O)OP(=O)(O)OP(=O)(O)O)[C@@H](O)[C@H]1O
Assay: NADH-coupled ATPase assay (pyruvate kinase / lactate dehydrogenase), fit with Hill coefficient
Assay type: biochemical, Mycolicibacterium smegmatis
Details: 0.1 μM complex in 0.05% DDM micelles, 20 mM Tris-HCl pH 8.0, 150 mM NaCl, 5 mM MgCl2, 10% glycerol, 37 °C, Michaelis-Menten with Hill term (n = 1.28 ± 0.57)

B1: YrbE1A/B-MceG (core ABC transporter of the Mce1 system) (Mycolicibacterium smegmatis MC2 155) (protein)
chain: MGVQIDVTGLSKSFGSSKIWEDVTMSIPAGEVSVLLGPSGTGKSVFLKSLIGLLRPERGSIVIDGTDILQCSAKELYEIRTLFGVLFQDGALFGSMNIYDNTAFPLREHTKKSESEIRKIVMEKLDLVGMPNDGHKFPGEISGGMRKRAGLARALVLDPEIILCDEPDSGLDPVRTAYLSQLLIDINAQIDATVLIVTHNINIARTVPDNMGMLFRKQLVMFGPREVLLTSEEPVVKQFLNGRRIGPIGMSEEKDEATAAAEQALVDAGQHDGGVEEIEGVPPQLQATPGMPERKAVARRKARVREILHTLPPAAQAAILEELDRDQPQLSAPTTQTAATAPVENYDDSPTGVIEVPKQA
notes: YrbE1A, His6-YrbE1B and MceG co-expressed in E. coli BL21(λDE3); DDM-solubilised, TALON and SEC purified; with ABC transporter permease YrbE1A (Mce1 transmembrane domain protein); ABC transporter permease YrbE1B (Mce1 transmembrane domain protein)
- Km: 284 ± 311 µM
- kcat: 0.184 ± 0.125 μM ATP s^−1/μM complex
